Laboratory results as given in EP2243792A1 (Spiber Technologies AB, dated 2010).

What was measured:
[1] = biological target: the molecule itself; assay: self-association; polymerisation at pH 6, macroscopic formations and SEM
[2] = biological target: NT, N-terminal domain of major ampullate spidroin (MaSp) 1 from Euprosthenops australis (Euprosthenops australis); assay: self-association; DLS, 10 mM phosphate buffer, pH 6.0
[3] = biological target: NT, N-terminal domain of major ampullate spidroin (MaSp) 1 from Euprosthenops australis (Euprosthenops australis); assay: self-association; DLS, 10 mM phosphate buffer, pH 7.2
[4] = biological target: NT, N-terminal domain of major ampullate spidroin (MaSp) 1 from Euprosthenops australis (Euprosthenops australis); assay: self-association; DLS, 100 mM phosphate buffer, pH 6.2
[5] = biological target: NT, N-terminal domain of major ampullate spidroin (MaSp) 1 from Euprosthenops australis (Euprosthenops australis); assay: self-association; DLS, 100 mM phosphate buffer, pH 7.2
[6] = biological target: NT, N-terminal domain of major ampullate spidroin (MaSp) 1 from Euprosthenops australis (Euprosthenops australis); assay: self-association; DLS, 10 mM phosphate buffer + 150 mM NaCl, pH 6.1
[7] = biological target: NT, N-terminal domain of major ampullate spidroin (MaSp) 1 from Euprosthenops australis (Euprosthenops australis); assay: self-association; DLS, 10 mM phosphate buffer + 150 mM NaCl, pH 7.2
[8] = biological target: NT, N-terminal domain of major ampullate spidroin (MaSp) 1 from Euprosthenops australis (Euprosthenops australis); assay: self-association; DLS, 10 mM phosphate buffer + 300 mM NaCl, pH 6.2
[9] = biological target: NT, N-terminal domain of major ampullate spidroin (MaSp) 1 from Euprosthenops australis (Euprosthenops australis); assay: self-association; DLS, 10 mM phosphate buffer + 300 mM NaCl, pH 7.2
[10] = biological target: the molecule itself; assay: self-association; turbidimetry at different pH values

B1: NT4RepCT (other)
chain: MKASHTTPWTNPGLAENFMNSFMQGLSSMPGFTASQLDDMSTIAQSMVQSIQSLAAQGRTSPNKLQALNMAFASSMAEIAASEEGGGSLSTKTSSIASAMSNAFLQTTGVVNQPFINEITQLVSMFAQAGMNDVSASASAGASAAASAGAASGQGGYGGLGQGGYGQGAGSSAAAAAAAAAAAAGGQGGQGQGGYGQGSGGSAAAAAAAAAAAAAAAGRGQGGYGQGSGGNAAAAAAAAAAAAAAAGQGGQGGYGRQSQGAGSAAAAAAAAAAAAAAGSGQGGYGGQGQGGYGQSSASASAAASAASTVANSVSRLSSPSAVSRVSSAVSSLVSNGQVNMAALPNIISNISSSVSASAPGASGCEVIVQALLEVITALVQIVSSSSVGYINPSAVNQITNVVANAMAQVMGKLAAALEHHHHHH
notes: Non-natural minispidroin: NT, repetitive fragment and C-terminal domain; Made as an N-terminal fusion to His6; also called NT4RepCTHis; minispidroin NT4RepCT
Question: Does B1 bind [1]?
Answer: binds

B2: NT, N-terminal domain of major ampullate spidroin (MaSp) 1 from Euprosthenops australis (protein)
chain: GSGNSHTTPWTNPGLAENFMNSFMQGLSSMPGFTASQLDDMSTIAQSMVQSIQSLAAQGRTSPNKLQALNMAFASSMAEIAASEEGGGSLSTKTSSIASAMSNAFLQTTGVVNQPFINEITQLVSMFAQAGMNDVSA
Question: B2 was tested. Which % particles [2] did it give?
Answer: 100%

Question: What about the Size (nm) [2] of the same binder?
Answer: 687 nm

Question: What about the % particles [3] of the same binder?
Answer: 99.8%

Question: And the Size (nm) [3]?
Answer: 4.5 nm

Question: What about the % particles [4] of the same binder?
Answer: 99.9%

Question: And the Size (nm) [4]?
Answer: 4.2 nm

Question: What about the % particles [5] of the same binder?
Answer: 99.9%

Question: And the Size (nm) [5]?
Answer: 4.2 nm

Question: What about the % particles [6] of the same binder?
Answer: 96.8%

Question: And the Size (nm) [6]?
Answer: 710 nm

Question: And the % particles [7]?
Answer: 99.9%

Question: What about the Size (nm) [7] of the same binder?
Answer: 4.1 nm

Question: And the % particles [8]?
Answer: 99.9%

Question: And the Size (nm) [8]?
Answer: 4.4 nm

Question: What about the % particles [9] of the same binder?
Answer: 99.9%

Question: And the Size (nm) [9]?
Answer: 4.3 nm

B3: NT4Rep (other)
chain: GSGNSHTTPWTNPGLAENFMNSFMQGLSSMPGFTASQLDDMSTIAQSMVQSIQSLAAQGRTSPNKLQALNMAFASSMAEIAASEEGGGSLSTKTSSIASAMSNAFLQTTGVVNQPFINEITQLVSMFAQAGMNDVSASASAGASAAASAGAASGQGGYGGLGQGGYGQGAGSSAAAAAAAAAAAAGGQGGQGQGGYGQGSGGSAAAAAAAAAAAAAAAGRGQGGYGQGSGGNAAAAAAAAAAAAAAAGQGGQGGYGRQSQGAGSAAAAAAAAAAAAAAGSGQGGYGGQGQGGYGQS
notes: Non-natural minispidroin: NT domain plus a repetitive fragment derived from E. australis MaSp1; Made as a C-terminal fusion to His6TrxHis6, tag removed; also called minispidroin NT4Rep
Question: Does B3 bind [1]?
Answer: binds

B4: NT5Rep (other)
chain: GSGNSHTTPWTNPGLAENFMNSFMQGLSSMPGFTASQLDDMSTIAQSMVQSIQSLAAQGRTSPNKLQALNMAFASSMAEIAASEEGGGSLSTKTSSIASAMSNAFLQTTGVVNQPFINEITQLVSMFAQAGMNDVSASASAGASAAASAGAPGYSPAPSYSSGGYASSAASAAAAAGQGGPGGYGPAPNQGASSAAAAAAGSGQGPSGPYGTSYQISTQYTQTTTSQGQGYGSSSAGAAAAGAAGAGQGGYGGQGQGGYGQGAGGAAAAAAAAAAAAAAAGQGGQGGGGYGQGGQGGQGGQGQGGYGQGAGSSAAAAAAAAAAAAAAGRGQGGYGPGSGG
notes: Non-natural minispidroin; Made as a C-terminal fusion to His6TrxHis6, tag removed
Question: Does B4 bind [10]?
Answer: binds
